Assay results from patent US20150203581A1 (Genentech, published 2015).
Where two headings read alike, the source gives them in different places.

Experiments:
[1] = target: T1, recombinant human integrin α5β1 (human, UniProt P08648 42-995; P05556 21-728); test: SPR (BIAcore), IgG captured on anti-human Fc chip, Human Integrin α5β1 (R&D) as analyte
T1 construct: also called human α5β1 integrin
Procedure: (§1) To determine binding kinetics and affinities of the antibodies described herein, Surface Plasmon Resonance (SRP) measurement with a BIAcore™-3000 instrument was used. Antibody was first captured by pre-immobilized rabbit anti-human Fc CM5 biosensor chip on the different flow cell to achieve approximately 150 RU (Response Units). For kinetics measurements, 2-fold serial dilutions of human integrin α5β1 (300 nM to 1.2 nM) were injected in PBT buffer (PBS with 0.05% Tween 20) at 25° C. with a flow rate of 30 μl/min. Association rates (kₒₙ) and dissociation rates (koff) were calculated using a simple one-to-one Langmuir binding model (BIAcore Evaluation Software version 3.2). The equilibrium dissociation constant (KD) was calculated as the ratio koff/kₒₙ.
(§2) To determine binding kinetics and affinities of chimeric 18C12, h18C12.v6.1, h18C12.v6.1.1, h18C12.v6.1.2, h18C12.v6.1.3, h18C12.v6.1.4, h18C12.v6.1.5 IgGs, Surface Plasmon Resonance (SRP) measurement with a BIAcore™-3000 instrument as described in Example 1 was used.

[2] = target: T1, recombinant human integrin α5β1; test: phage competition ELISA: Fab-displaying phage pre-incubated with serially diluted soluble human integrin α5β1, unbound phage captured on plate-coated human integrin α5β1, anti-M13-HRP detection
Procedure: MAXISORP™ microtiter plates were coated with recombinant human integrin β5β1 (R&D) at 5 μg/ml in PBS overnight and then blocked with PBST buffer (0.5% BSA and 0.05% Tween 20 in PBS) for an hour at room temperature. Phage from culture supernatants were incubated with serially diluted human integrin α5β1 in PBST buffer in a tissue-culture microtiter plate for an hour, after which 80 μl of the mixture was transferred to the target-coated wells for 15 minutes to capture unbound phage. The plate was washed with PBT buffer (0.05% Tween 20 in PBS), and HRP-conjugated anti-M13 (Amersham Pharmacia Biotech) was added (1:5000 in PBST buffer) for 40 minutes. The plate was washed with PBT buffer and developed by adding tetramethylbenzidine substrate (Kirkegaard and Perry Laboratories, Gaithersburg, Md.). The absorbance at 450 nm was plotted as a function of target concentration in solution to determine phage IC₅₀.

[3] = target: T1, recombinant human integrin α5β1; test: SPR (BIAcore), antibody as hIgG is the captured ligand, Human Integrin α5β1 (R&D) is the analyte
Procedure: as §1

[4] = target: T1, recombinant human integrin α5β1; test: cell-based or functional assay
[5] = target: T2, recombinant α5β1 extracellular domain; test: blocking ELISA: antibody titrated and premixed with recombinant α5β1 (R&D), then added to fibronectin-coated wells; bound α5β1 detected with anti-β1-biotin / streptavidin-HRP (OD450); the blocked ligand is fibronectin
T2 construct: extracellular domain; also called α5β1 (R & D Systems)
Procedure: anti-β5β1 antibody (30 μg/mL) was serially diluted 1:3 11 times. 50 μl of the serially diluted anti-β5β1 antibody was added to 0.65 mL micro tubes and premixed (1:1) with 50 μL of 200 ng/mL […] (R & D Systems) in ELISA buffer (150 mM NaCl, 10 mM Tris, pH 7.5, 5 mg/mL BSA, 1 mM MnCl₂) for 60 minutes at room temperature with gentle agitation. 25 μL of the premixed α5β1 and anti-β5β1 antibody was added to the Fibronectin coated wells and the plates were incubated at room temperature for 60 minutes with gentle agitation. Plates were washed 6 times with PBT buffer, 100 ng/mL anti-β1-biotin in ELISA buffer was added to each well and the plates were incubated for 60 minutes at room temperature with gentle agitation. Plates were washed 6 times with 80 μL PBT buffer, 25 μL of Streptadvidin-HRP (1:50,000 in ELISA buffer, GE Healthcare) was added to each well, and the plates were incubated for 60 minutes at room temperature with gentle agitation. Plates were washed 6 times with 80 μL PBT buffer, 25 μl of TMB substrate (Kirkgaard and Perry Laboratories) was added to each well, plates were incubated about 6 minutes at room temperature, and the reaction was stopped with 25 μL of 1 M Phosphoric Acid. Absorbance was read at 450 nm and IC₅₀ values were analyzed as described in section B above. […]

[6] = target: T1, recombinant human integrin α5β1; test: SPR (BIAcore), antibody as hIgG is the captured ligand, Human Integrin α5β1 (R&D) is the analyte; remark: listed apart in the source
Procedure: as §1, §2

[7] = target: T1, recombinant human integrin α5β1; test: BIAcore SPR, IgG captured by anti-human Fc, human integrin α5β1 as analyte
Procedure: as §1, §2

[8] = target: T1, recombinant human integrin α5β1; test: cell-based or functional assay; remark: listed apart in the source

T1 sequence (P08648 42-995 limits assumed, chain 1 of 2): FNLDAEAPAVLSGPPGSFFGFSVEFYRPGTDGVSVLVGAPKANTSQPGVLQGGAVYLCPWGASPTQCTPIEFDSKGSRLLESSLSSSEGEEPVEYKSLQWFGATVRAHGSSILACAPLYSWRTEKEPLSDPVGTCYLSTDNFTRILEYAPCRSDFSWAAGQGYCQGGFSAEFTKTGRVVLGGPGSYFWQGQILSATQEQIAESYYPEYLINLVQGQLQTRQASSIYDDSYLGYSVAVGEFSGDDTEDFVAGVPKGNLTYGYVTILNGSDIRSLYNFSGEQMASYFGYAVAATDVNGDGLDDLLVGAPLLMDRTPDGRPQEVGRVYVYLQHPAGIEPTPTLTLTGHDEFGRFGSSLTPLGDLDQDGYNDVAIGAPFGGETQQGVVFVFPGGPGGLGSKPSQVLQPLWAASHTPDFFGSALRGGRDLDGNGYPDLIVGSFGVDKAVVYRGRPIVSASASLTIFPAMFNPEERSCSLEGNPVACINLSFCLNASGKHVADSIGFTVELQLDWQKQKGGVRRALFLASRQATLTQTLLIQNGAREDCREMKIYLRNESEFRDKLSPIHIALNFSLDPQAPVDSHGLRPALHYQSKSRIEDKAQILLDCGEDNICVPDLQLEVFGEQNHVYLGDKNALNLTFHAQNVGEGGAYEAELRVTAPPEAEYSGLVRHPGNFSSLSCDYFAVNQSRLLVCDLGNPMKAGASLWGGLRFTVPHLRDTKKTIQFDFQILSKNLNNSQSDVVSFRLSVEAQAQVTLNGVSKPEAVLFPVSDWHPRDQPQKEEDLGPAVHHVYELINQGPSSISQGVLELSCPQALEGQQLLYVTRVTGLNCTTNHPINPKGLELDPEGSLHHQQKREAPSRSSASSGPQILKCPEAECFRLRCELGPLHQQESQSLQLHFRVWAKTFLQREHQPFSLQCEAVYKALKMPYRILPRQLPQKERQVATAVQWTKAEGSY
T1 sequence (P05556 21-728 limits assumed, chain 2 of 2): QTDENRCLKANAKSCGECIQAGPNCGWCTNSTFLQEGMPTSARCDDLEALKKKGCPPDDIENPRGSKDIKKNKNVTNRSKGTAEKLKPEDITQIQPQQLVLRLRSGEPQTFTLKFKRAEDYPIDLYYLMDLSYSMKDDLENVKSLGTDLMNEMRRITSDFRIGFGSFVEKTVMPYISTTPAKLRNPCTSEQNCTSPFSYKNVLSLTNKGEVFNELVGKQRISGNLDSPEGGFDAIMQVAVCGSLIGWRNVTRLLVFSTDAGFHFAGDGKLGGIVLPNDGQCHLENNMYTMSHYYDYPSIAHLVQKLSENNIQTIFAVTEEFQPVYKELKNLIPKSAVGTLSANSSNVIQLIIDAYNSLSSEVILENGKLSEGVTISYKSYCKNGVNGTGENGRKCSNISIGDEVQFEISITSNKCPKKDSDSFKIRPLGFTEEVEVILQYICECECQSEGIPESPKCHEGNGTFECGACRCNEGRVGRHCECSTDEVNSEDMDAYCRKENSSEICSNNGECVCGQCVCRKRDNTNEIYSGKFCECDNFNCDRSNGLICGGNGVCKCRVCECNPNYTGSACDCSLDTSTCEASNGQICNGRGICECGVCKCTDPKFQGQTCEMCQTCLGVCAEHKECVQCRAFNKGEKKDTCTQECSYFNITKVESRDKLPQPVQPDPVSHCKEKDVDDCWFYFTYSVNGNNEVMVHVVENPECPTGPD
T2 sequence (P08648 42-995, chain 1 of 2): as the sequence (P08648 42-995 limits assumed, chain 1 of 2) above
T2 sequence (P05556 21-728, chain 2 of 2, further chain): as the sequence (P05556 21-728 limits assumed, chain 2 of 2) above

Binder	Kd [1] [nM]	koff [1] [s⁻¹]	kon [1] [M⁻¹ s⁻¹]	IC50 [2] [nM]	Kd [3] [nM]	koff [3] [s⁻¹]	kon [3] [M⁻¹ s⁻¹]	Kd [6] [nM]	koff [6] [s⁻¹]	kon [6] [M⁻¹ s⁻¹]	IC50 for inhibition of adhesion of U937 cells to plate-coated fibronectin (Cell-Titer Glo luminescence); the target is α5β1 on the U937 cells [8] [nM]	also measured
h18C12.v6.1.2 (antibody, V domains shown, copies: 2 + 2) VH: EVQLVESGGGLVQPGGSLRLSCAASGFTFSARWIYWVRQAPGKGLEWVGGIKTKPAIYATEYADSVKGRFTISRDDSKNTLYLQMNSLRAEDTAVYYCARLTGMKYFDYWGQGT VL: SSELTQDPAVSVALGQTVRITCTLSSQHSTYTIGWYQQKPGQAPVYLMYLNSDGSHNKGSGIPDRFSGSSSGATRSLTITNAQAEDEADYYCAAYYAYGYVFGGGT	13.5	0.000643	48000	–	–	–	–	–	–	–	–	–
h18C12.v3 (Fab, V domains shown, also called Humanized 18C12.v3; h18C12.v3 parental clone) VH: EVQLVESGGGLVQPGGSLRLSCAASGFTFSNRWIYWVRQAPGKGLEWVGGIKTKPNIYATEYADSVKGRFTISRDDSKNTLYLQMNSLRAEDTAVYYCARLTGMRYFDYWGQGT VL: EPVLTQSPSASASLGASVKLTCTLSSQHSTYTIGWYQQQPGKAPRYLMYLNSDGSHNKGDGIPDRFSGSSSGADRYLTISNLQSEDEADYYCGSSYSSGYVFGGGT	–	–	–	0.72	11.5	0.000807	71000	–	–	–	–	–
h18C12.v6 (Fab, V domains shown) VH: EVQLVESGGGLVQPGGSLRLSCAASGFTFSNRWIYWVRQAPGKGLEWVGGIKTKPNIYATEYADSVKGRFTISRDDSKNTLYLQMNSLRAEDTAVYYCARLTGMKYFDYWGQGT VL: EPVLTQSPSASASLGASVKLTCTLSSQHSTYTIGWYQQQPGKAPRYLMYLNSDGSHNKGDGIPDRFSGSSSGADRYLTISNLQSEDEADYYCAAYYAYGYVFGGGT	–	–	–	0.41	4.8	0.00075	174000	–	–	–	–	–
chimeric 18C12 (antibody, V domains shown, also called chimeric 18C12 IgG) VH: EVHLVESGGDLVQPGSSLKLSCAASGFTFSNRWIYWVRQAPGKGLEWVGGIKTKPNIYATEYADSVKGRFTISRDDSKNSLYLQMNTLRVDDTAIYYCTSLTGMRYFDYWGQGT VL: QPVLTQSPSASASLGNSVKITCTLSSQHSTYTIGWYQQHPDKAPKYVMYLNSDGSHNKGDGIPDRFSGSSSGAHRYLSISNIQPEDEADYFCGSSYSSGYVFGSGT	–	–	–	–	–	–	–	7.68	0.000922	120000	0.159	–

Further lines, with some results ahead:

Kd [1] [nM]	koff [1] [s⁻¹]	kon [1] [M⁻¹ s⁻¹]	IC50 [2] [nM]	Kd [3] [nM]	koff [3] [s⁻¹]	kon [3] [M⁻¹ s⁻¹]	Kd [6] [nM]	koff [6] [s⁻¹]	kon [6] [M⁻¹ s⁻¹]	IC50 for inhibition of adhesion of U937 cells to plate-coated fibronectin (Cell-Titer Glo luminescence); the target is α5β1 on the U937 cells [8] [nM]	Binder	also measured
15.5	0.000659	43000	–	–	–	–	–	–	–	–	h18C12.v6.1.5 (antibody, V domains shown, Derived from h18C12.v6.1 by removing Asn in CDR-L2 positions 50a-50d; also called anti-α5β1 antibody h18C12.v6.1.5) VH: EVQLVESGGGLVQPGGSLRLSCAASGFTFSARWIYWVRQAPGKGLEWVGGIKTKPAIYATEYADSVKGRFTISRDDSKNTLYLQMNSLRAEDTAVYYCARLTGMKYFDYWGQGT VL: SSELTQDPAVSVALGQTVRITCTLSSQHSTYTIGWYQQKPGQAPVYLMYLNSDSSHNKGSGIPDRFSGSSSGATRSLTITNAQAEDEADYYCAAYYAYGYVFGGGT	IC50 for inhibition of adhesion of U937 cells to plate-coated fibronectin (Cell-Titer Glo luminescence); the target is α5β1 on the U937 cells [4]: 0.126 nM; IC50 [5]: 0.077 nM
–	–	–	–	–	–	–	4	0.000386	97000	0.207	h18C12.v6.1Lam3 (antibody, V domains shown, CDRs come from h18C12.v6 with changes in CDR-L2 (D50cS, D56S), CDR-H1 (N31A) and CDR-H2 (N53A); The human λIII framework carries L46Y, V47L, I48M, N69A, A71R and G77N) VH: EVQLVESGGGLVQPGGSLRLSCAASGFTFSARWIYWVRQAPGKGLEWVGGIKTKPAIYATEYADSVKGRFTISRDDSKNTLYLQMNSLRAEDTAVYYCARLTGMKYFDYWGQGT VL: SSELTQDPAVSVALGQTVRITCTLSSQHSTYTIGWYQQKPGQAPVYLMYLNSSGSHNKGSGIPDRFSGSSSGATRSLTITNAQAEDEADYYCAAYYAYGYVFGGGT	fold higher binding affinity than hamster 18C12 [7]: ~2 fold
